We go through one molecule from US12077599 (SEOUL NATIONAL UNIVERSITY R AND DB FOUNDATION NATIONAL …, dated 2024).

The test concerns the target T1, GRP75 (Enzo Life Sciences) (UniProt P38646 47-679, limits assumed).
T1 construct: Purchased protein coated in ELISA
Kind of test: ELISA, GRP75 coated, detection with HRP anti-rabbit IgG. The procedure: Microtiter plates (Costar, Cambridge, MA, USA) were coated with 100 ng of a recombinant ROS1 (37-290 amino acids)-Cκ fusion protein, an irrelevant protein (recombinant PSA (prostate cancer specific antigen; NP_001025218.1))-Cκ fusion protein the synthetic peptide ([…]-[…])-BSA conjugate or GRP75 (Enzo Life Sciences, Farmingdale, NY, USA) dissolved in coating buffer (0.1 M sodium bicarbonate, pH 8.6). After blocking, 3B20-rFc or 3B20-G1K (the first amino acid G of HCDR3 of 3B20 was substituted to K)-rFc fusion proteins were added. The amounts of bound antibodies were determined using a horseradish peroxidase (HRP)-conjugated goat anti-rabbit IgG antibody (Abcam, Cambridge Science Park, Cambridge, UK) and 2,20-azinobis [3-ethylbenzothiazoline-6-sulfonic acid]-diammonium salt (ABTS) substrate solution (Amresco LLC, Solon, OH, USA). All experiments were performed in triplicate.
To test the specificity of 3B20-GlK, a recombinant 3B20-G1K scFv-Cκ fusion protein was prepared. Then ELISA, immunoblot, and immunoprecipitation analyses were performed in parallel with 3B20 for the prepared fusion protein. […] After blocking, the 3B20-rFc fusion protein or 3B20-G1K-rFc fusion protein was added to the well in a concentration of 0 to 2000 ng/ml, and the amount of the fusion protein combined to the well was measured by ELISA using the HRP-conjugated anti-rabbit IgG antibody and ABTS solution. […]
(In general: In an ELISA, binding on a coated surface is turned into a signal by an enzyme label.)

T1 sequence (P38646 47-679 limits assumed): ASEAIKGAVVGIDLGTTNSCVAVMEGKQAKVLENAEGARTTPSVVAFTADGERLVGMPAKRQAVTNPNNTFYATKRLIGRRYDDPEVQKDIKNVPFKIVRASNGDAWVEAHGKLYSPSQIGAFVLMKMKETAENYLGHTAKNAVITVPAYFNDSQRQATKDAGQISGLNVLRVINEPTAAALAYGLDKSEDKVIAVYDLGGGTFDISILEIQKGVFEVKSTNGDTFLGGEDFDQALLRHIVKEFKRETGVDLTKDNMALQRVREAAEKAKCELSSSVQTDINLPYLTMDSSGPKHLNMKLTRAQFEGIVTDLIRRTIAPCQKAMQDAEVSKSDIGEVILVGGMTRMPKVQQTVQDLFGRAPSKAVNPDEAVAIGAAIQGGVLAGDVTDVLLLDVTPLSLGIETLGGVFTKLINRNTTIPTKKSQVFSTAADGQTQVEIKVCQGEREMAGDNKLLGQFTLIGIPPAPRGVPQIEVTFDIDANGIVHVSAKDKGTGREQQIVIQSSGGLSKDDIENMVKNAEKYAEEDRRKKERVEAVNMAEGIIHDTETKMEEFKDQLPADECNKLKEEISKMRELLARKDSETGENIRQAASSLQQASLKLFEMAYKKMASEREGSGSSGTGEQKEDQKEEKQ

B1: 3B20-G1K scFv-rFc fusion protein (Fc fusion)
scFv: LTQPSSVSANLGGTVKITCSGGSYGYGWYQQKAPGSAPATVIYDNTNRPSDIPSRFSGSKSGSTGTLTITGVQVEDEAVYYCGSADSSSIATFGAGTTLTVLGQSSRSSGGGGSSGGGGSAVTLDESGGGLQTPGGTLSLVCKASGFSFSDRGMHWMRQAPGKGLEYVGAISGDGYITHYGAAVKGRATISRDNGQSTVRLQLNNLRAEDTATYYCTRKGGGNIDAWGHGTEVIVSSTS
notes: also called 3B20-G1K-rFc; 3B20(scFv)-G1K-rFc fusion protein; not shown: rabbit antibody Fc (rFc)
As to B1, the binding result was “no binding (tested: 2 µg/mL)”.
